Results published in patent US20230242654A1, “REAGENTS FOR EXPANDING CELLS EXPRESSING RECOMBINANT RECEPTORS” (Juno Therapeutics, Inc., priority 2017, published 2023).

How the values were obtained:
[1] = Stability of antibody conjugated beads (supernatant SDS-PAGE, Coomassie blue); assay type: physicochemical
Experimental: To assess stability of the anti-ID conjugated beads, the beads were pelleted, the supernatant was removed and loaded on a 4-12% Bis-Tris SDS-PAGE gel and the gel was stained with Coomassie blue. As a control for total protein conjugated on the beads, the pelleted beads were boiled in 4× (lithium dodecyl sulfate) LDS sample buffer at about 70° C. for 20 minutes and approximately 12.5 μL or 25 μL boiled supernatant also was run on SDS-PAGE gel and assessed by Coomassie blue. Approximately 2.5 μg or 5.0 μg anti-ID antibody that had not been conjugated to the beads (positive control) or 5 μL 0.1% HSA (negative control) also were assessed by SDS-PAGE and Coomassie blue staining.
Stability of the antibody conjugated beads was assessed by pelleting the antibody-conjugated beads, running the resultant supernatant on an 4-12% Bis-Tris gel, and staining the gel for protein with Coomassie blue. As a control for total protein conjugated on the beads, a 10 μL sample of supernatant from pelleted beads that were boiled in LDS sample buffer also was assessed. […] Bands corresponding to the antibodies were detected in the sample with the supernatant from the boiled sample.
Stability of the antibody conjugated beads was assessed by pelleting the antibody-conjugated beads, running the resultant supernatant on an 4-12% Bis-Tris gel, and staining the gel for protein with Coomassie blue. […]

[2] = system: CD4+ or CD8+ CAR-expressing T cells; assay: Expansion after serial restimulation, 4 rounds in 14 days; assay type: cell-based, human
Experimental: The ability of cells to expand ex vivo following repeated stimulations may be a potential surrogate for capacity of CAR+ T cells to persist (e.g. following initial activation) and/or is indicative of function in vivo (Zhao et al. (2015) Cancer Cell, 28:415-28). CAR+ T cells were generated as described above and thawed CD4+ or CD8+ CAR-expressing T cells were plated separately at 50,000 CAR+ cells/well. Anti-ID B-1 conjugated beads were added to cells at a 1:1 or 1:5 cell:bead ratio in the presence or absence of cytokines as described in Example 10. As a control, anti-CD3/anti-CD28 magnetic beads were added to cells at a 3:1 cell:bead ratio in the presence or absence of the cytokines. Cells were harvested every 3-4 days and counted, and restimulated with new […] using the same culture conditions after resetting cell number to initial seeding density for each round. A total of 4 rounds of stimulation during a 14 day culture period were carried out. For each round of stimulation, the number of doublings was determined.

[3] = system: T cells transduced with anti-CD19 CAR having an scFv derived from FMC63; assay: CAR-specific cell expansion with anti-ID B-1 conjugated beads, 9 days, two patient donors; assay type: cell-based, human
Experimental: Similar studies as those described in Examples 11 and 12 were performed, except using CAR-expressing T cells generated from two different patient donors. CD3-purified T cells were isolated from peripheral blood mononuclear cells (PBMCs) of two donor patients, transduced with a viral vector encoding an anti-CD19 CAR having an scFv derived from FMC63, expanded in culture, frozen, and thawed.
Thawed CD4+, CD8+ or co-cultures of CD4/CD8 (1:1 ratio) were seeded in wells of a 6-well plate at approximately 5×10^6 total cells/well in culture media that was additionally supplemented with cytokines as follows: for CD4+ cells or CD4+/CD8+ co-cultures media was supplemented with approximately 1200 IU/mL recombinant IL-7, 20 IU/mL recombinant IL-15 and 100 IU/mL recombinant IL-2; for CD8+ cells media was supplemented with 200 IU/mL recombinant IL-2 and 20 IU/mL recombinant IL-15. Anti-ID B-1 conjugated beads were added to cells at a 1:1 cell:bead ratio and incubated up to 9 days with a 50% media exchange every 2-3 days.
At various times of culture, the number of CD4+ or CD8+ transduced cells (as detected by anti-EGFR for expression of the EGFRt surrogate marker) present in the culture for each condition was assessed and fold expansion or frequency of the CAR-expressing cells as a percent of total cells was determined. Expression of PD-1 and CD25 and cell viability also was determined.

[4] = system: anti-CD19 CAR-T cell compositions; assay: Long-term (15 day) stimulation with anti-ID conjugated beads of CAR-T compositions made with compounds; assay type: cell-based, human; settings: 1:1 bead:cell, 15 days, counted every 5 days
Experimental: Engineered T cell compositions containing T cells that express an anti-CD19 CAR were generated from three separate donors in the presence of different compounds or a vehicle control.
The ability of the cells from the different T cell compositions to expand following stimulation of the CAR was assessed by incubating cells of the generated anti-CD19 CAR-T cell compositions with beads surface conjugated with an anti-idiotype antibody specific to the anti-CD19 CAR. The anti-ID conjugated beads were incubated with cells at a 1:1 bead:cell ratio in wells of 24-well G-rex expansion vessels (Argos Technologies) for 15 days. The total live T cells per well was determined by counting cells in the cultures every 5 days (FIG. 25A). The mean area under the curve (AUC) of the function of T cell number over time was calculated relative to the AUC of cells expanded with media only (FIG. 25B).
Secondary cytokine response after stimulation with antigen-expressing cells was assessed on CAR-T cells from the T cell compositions harvested at day 11 following expansion with anti-ID conjugated beads. The anti-ID stimulated cells were incubated with irradiated K562-CD19 target cells at an effector:target ratio of 1:1 for approximately 16 hours. Supernatant was collected and TNF-alpha, IFN-gamma, and IL-2 cytokine production were measured using a Luminex Multiplex Assay. […]

B1: anti-ID conjugated beads: FMC63-derived scFv-specific anti-idiotype antibody (B-1 in Examples 10-14) covalently coupled to tosyl-activated magnetic beads (conjugate)
heavy: EVQLQQSGPELVKPGASVKMSCKASGYTFTDYYMKWVKQCHGKSLEWIGDINPNNGGTDYNQNFKGKATLTVDKSSSTAYMQLNSLTSEDSAVYYCAREGNNYGSRDAMDYWGQGTSVTVSSAKTTAPSVYPLAPVCGDTTGSSVTLGCLVKGYFPEPVTLTWNSGSLSSGVHTFPAVLQSDLYTLSSSVTVTSSTWPSQSITCNVAHPASSTKVDKKIEPRGPTIKPCPPCKCPAPNLLGGPSVFIFPPKIKDVLMISLSPIVTCVVVDVSEDDPDVQISWFVNNVEVHTAQTQTHREDYNSTLRVVSALPIQHQDWMSGKEFKCKVNNKDLPAPIERTISKPKGSVRAPQVYVLPPPEEEMTKKQVTLTCMVTDFMPEDIYVEWTNNGKTELNYKNTEPVLDSDGSYFMYSKLRVEKKNWVERNSYSCSVVHEGLHNHHTTKSFSRTPGK
light: QIVLTQSPALMSASPGEKVTMTCSASSGVIYMYWYQQKPRSSPKPWIYLTSNLASGVPARFSGSGSGTSYSLTISSMEAEDAATYYCQQWSSNPLTFGAGTKLELKRADAAPTVSIFPPSSEQLTSGGASVVCFLNNFYPKDINVKWKIDGSERQNGVLNSWTDQDSKDSTYSMSSTLTLTKDEYERHNSYTCEATHKTSTSPIVKSFNRNEC
stability of the conjugation [1]: the conjugation was stable | expansion of CAR-expressing (EGFRt+) CD4+ cells after restimulation ([2]; 1:1 or 1:5 cell:bead, 4 rounds): continued cell expansion | extent of expansion of CD4+ cells ([2]; versus anti-CD3/anti-CD28 beads): the extent of expansion was greater | expansion of CD8+ T cells ([2]; versus anti-CD3/anti-CD28 beads, particularly without recombinant cytokines): expansion was somewhat greater | expansion of CAR-expressing (EGFRt+) CD4+ T cells ([3]; CD4+ cells cultured alone, 1:1 cell:bead, up to 9 days): over 60 fold | expansion of CAR-expressing (EGFRt+) CD8+ T cells ([3]; CD8+ T cells co-cultured with CD4+ cells): substantially higher expansion | CD25 expression ([3]; after 9 days): also was decreased | frequency of transduced cells (EGFRt+) in the culture ([3]; day 9): > 90% | PD-1 expression on CD4+ and CD8+ T cells ([3]; days 5, 7 and 9): decreased substantially over time | Viability of CD4+ and CD8+ cells ([3]; during the 9 day culture): ~100% | total live T cells per well [4]: initial expansion that was followed by a decline in cell number
